One block for each binder: values may come before it.
Columns and labels:
Assay in all cases: holdup assay
Parameters in all cases: key: below the threshold = too weak to quantify, mostly under pKd 3.1 to 4
APBA1_1, Q02410 = biological target: T1, APBA1_1, Q02410
T1 sequence (Q02410 651-752, limits assumed, looked up): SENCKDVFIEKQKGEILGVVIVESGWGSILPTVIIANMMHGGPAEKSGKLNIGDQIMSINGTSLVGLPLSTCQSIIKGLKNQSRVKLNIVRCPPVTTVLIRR

CASK, O14936 = biological target: CASK, O14936
DLG3_3, Q92796 = biological target: T2, DLG3_3, Q92796
T2 sequence (Q92796 374-475, limits assumed, looked up): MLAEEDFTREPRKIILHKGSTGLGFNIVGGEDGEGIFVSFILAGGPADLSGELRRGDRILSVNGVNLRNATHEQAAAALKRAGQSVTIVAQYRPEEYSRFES

FRMPD3, Q5JV73 = biological target: FRMPD3, Q5JV73
GOPC, Q9HD26 = biological target: GOPC, Q9HD26
GORASP2, Q9H8Y8 = biological target: GORASP2, Q9H8Y8
GRID2IP_1, A4D2P6 = biological target: GRID2IP_1, A4D2P6
GRID2IP_2, A4D2P6 = biological target: GRID2IP_2, A4D2P6
HTRA2, O43464 = biological target: HTRA2, O43464
IL16_4, Q14005 = biological target: IL16_4, Q14005
Inadl_3, Q8NI35 = biological target: Inadl_3, Q8NI35
Inadl_9, Q8NI35 = biological target: Inadl_9, Q8NI35
LIMK2, P53671 = biological target: LIMK2, P53671
LNX1_2, Q8TBB1 = biological target: LNX1_2, Q8TBB1
LNX1_3, Q8TBB1 = biological target: LNX1_3, Q8TBB1
LNX2_2, Q8N448 = biological target: T3, LNX2_2, Q8N448
T3 sequence (Q8N448 334-432, limits assumed, looked up): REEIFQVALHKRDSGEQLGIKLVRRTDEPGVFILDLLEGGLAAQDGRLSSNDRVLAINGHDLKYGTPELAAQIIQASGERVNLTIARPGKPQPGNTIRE

MAGI2_3, Q86UL8 = biological target: MAGI2_3, Q86UL8
MAGI2_4, Q86UL8 = biological target: MAGI2_4, Q86UL8
MAST1, Q9Y2H9 = biological target: MAST1, Q9Y2H9
MAST2, Q6P0Q8 = biological target: MAST2, Q6P0Q8
NHERF4_2, Q86UT5 = biological target: NHERF4_2, Q86UT5
PDZD7_3, Q9H5P4 = biological target: T4, PDZD7_3, Q9H5P4
T4 sequence (Q9H5P4 857-944, limits assumed, looked up): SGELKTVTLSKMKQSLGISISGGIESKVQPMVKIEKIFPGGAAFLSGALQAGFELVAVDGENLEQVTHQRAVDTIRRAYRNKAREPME

PDZRN3_1, Q9UPQ7 = biological target: T5, PDZRN3_1, Q9UPQ7
T5 sequence (Q9UPQ7 244-349, limits assumed, looked up): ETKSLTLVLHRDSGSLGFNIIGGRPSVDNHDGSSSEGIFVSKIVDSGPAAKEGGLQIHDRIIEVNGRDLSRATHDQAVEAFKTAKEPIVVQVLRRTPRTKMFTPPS

PDZRN4_1, Q6ZMN7 = biological target: PDZRN4_1, Q6ZMN7
RADIL, Q96JH8 = biological target: T6, RADIL, Q96JH8
T6 sequence (Q96JH8 971-1071, limits assumed, looked up): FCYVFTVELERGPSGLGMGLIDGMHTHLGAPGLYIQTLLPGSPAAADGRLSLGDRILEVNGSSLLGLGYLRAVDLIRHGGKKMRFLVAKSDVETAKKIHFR

RHPN1, Q8TCX5 = biological target: T7, RHPN1, Q8TCX5
T7 sequence (Q8TCX5 508-602, limits assumed, looked up): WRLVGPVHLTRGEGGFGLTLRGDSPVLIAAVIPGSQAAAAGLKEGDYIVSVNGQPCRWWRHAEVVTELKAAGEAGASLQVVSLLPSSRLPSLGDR

SNTG2, Q9NY99 = biological target: T8, SNTG2, Q9NY99
T8 sequence (Q9NY99 68-166, limits assumed, looked up): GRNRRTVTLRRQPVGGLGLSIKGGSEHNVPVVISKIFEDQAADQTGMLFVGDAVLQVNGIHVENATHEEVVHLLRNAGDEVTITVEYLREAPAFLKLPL

TJP1_2, Q07157 = biological target: TJP1_2, Q07157
TJP2_1, Q9UDY2 = biological target: TJP2_1, Q9UDY2
[1] = plain residues with an end cap or a label only (N-terminal biotin on a linker: ahx)
[2] = plain residues with an end cap or a label only (N-terminal biotin on a linker: ttds)

Chain of TJP2_1, Q9UDY2 (Q9UDY2 24-128): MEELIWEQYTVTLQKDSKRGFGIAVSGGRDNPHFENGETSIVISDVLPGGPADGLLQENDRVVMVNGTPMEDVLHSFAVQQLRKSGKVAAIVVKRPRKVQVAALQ
Chain of LNX1_2, Q8TBB1 (Q8TBB1 371-470): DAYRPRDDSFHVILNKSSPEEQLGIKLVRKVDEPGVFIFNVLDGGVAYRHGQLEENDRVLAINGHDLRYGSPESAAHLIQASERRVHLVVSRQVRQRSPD
Chain of PDZRN4_1, Q6ZMN7 (Q6ZMN7 213-318): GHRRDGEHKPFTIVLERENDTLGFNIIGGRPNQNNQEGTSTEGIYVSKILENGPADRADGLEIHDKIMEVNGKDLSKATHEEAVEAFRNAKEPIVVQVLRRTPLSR
Chain of IL16_4, Q14005 (Q14005 1229-1329): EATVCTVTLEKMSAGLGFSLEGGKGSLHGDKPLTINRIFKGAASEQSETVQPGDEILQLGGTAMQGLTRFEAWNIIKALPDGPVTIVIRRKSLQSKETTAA
Chain of GRID2IP_2, A4D2P6 (A4D2P6 272-370): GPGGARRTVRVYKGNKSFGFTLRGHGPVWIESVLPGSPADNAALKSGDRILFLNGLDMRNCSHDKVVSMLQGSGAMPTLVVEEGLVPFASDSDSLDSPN
Chain of GRID2IP_1, A4D2P6 (A4D2P6 1-87): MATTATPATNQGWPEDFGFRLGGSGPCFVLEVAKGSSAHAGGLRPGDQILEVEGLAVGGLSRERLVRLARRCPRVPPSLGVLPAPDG
Chain of CASK, O14936 (O14936 487-570): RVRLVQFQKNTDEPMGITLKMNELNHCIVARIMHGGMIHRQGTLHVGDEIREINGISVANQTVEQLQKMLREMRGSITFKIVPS
Chain of LIMK2, P53671 (P53671 143-248): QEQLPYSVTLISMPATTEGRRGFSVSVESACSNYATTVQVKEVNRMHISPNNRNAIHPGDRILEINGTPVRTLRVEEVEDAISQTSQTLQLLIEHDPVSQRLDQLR
Chain of Inadl_3, Q8NI35 (Q8NI35 359-469): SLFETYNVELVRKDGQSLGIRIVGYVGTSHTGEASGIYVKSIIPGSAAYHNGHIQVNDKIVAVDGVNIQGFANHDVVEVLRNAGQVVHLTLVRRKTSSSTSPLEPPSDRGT
Chain of MAST2, Q6P0Q8 (Q6P0Q8 1099-1202): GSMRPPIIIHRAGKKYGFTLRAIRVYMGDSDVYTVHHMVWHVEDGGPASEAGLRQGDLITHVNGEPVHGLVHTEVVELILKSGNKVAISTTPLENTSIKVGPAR
Chain of TJP1_2, Q07157 (Q07157 181-274): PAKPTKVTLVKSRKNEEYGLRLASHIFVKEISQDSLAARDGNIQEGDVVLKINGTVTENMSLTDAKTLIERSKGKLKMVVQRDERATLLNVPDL
Chain of LNX1_3, Q8TBB1 (Q8TBB1 500-596): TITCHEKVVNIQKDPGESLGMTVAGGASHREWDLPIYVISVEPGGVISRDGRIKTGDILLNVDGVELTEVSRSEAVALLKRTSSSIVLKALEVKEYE
Chain of Inadl_9, Q8NI35 (Q8NI35 1530-1615): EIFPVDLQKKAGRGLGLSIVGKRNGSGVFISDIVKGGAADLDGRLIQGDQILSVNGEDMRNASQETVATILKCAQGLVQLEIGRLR
Chain of MAGI2_4, Q86UL8 (Q86UL8 772-865): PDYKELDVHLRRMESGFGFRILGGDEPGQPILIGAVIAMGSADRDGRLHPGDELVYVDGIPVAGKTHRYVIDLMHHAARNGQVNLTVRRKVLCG
Chain of NHERF4_2, Q86UT5 (Q86UT5 220-308): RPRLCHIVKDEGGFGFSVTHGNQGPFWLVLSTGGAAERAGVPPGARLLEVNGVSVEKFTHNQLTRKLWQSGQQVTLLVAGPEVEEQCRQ
Chain of FRMPD3, Q5JV73 (Q5JV73 12-100): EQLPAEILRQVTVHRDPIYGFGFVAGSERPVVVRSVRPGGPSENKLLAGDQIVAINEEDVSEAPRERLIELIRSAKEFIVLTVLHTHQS
Chain of MAGI2_3, Q86UL8 (Q86UL8 600-682): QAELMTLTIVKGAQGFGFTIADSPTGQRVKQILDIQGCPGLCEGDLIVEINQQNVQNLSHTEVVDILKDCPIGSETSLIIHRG
Chain of HTRA2, O43464 (O43464 355-458): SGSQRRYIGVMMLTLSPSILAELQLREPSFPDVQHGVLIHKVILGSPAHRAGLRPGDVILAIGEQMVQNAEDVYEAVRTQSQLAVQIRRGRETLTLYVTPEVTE
Chain of MAST1, Q9Y2H9 (Q9Y2H9 962-1065): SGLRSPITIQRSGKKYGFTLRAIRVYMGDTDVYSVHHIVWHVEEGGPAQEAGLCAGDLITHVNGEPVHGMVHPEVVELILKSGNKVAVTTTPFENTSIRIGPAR

pKd (APBA1_1, Q02410; [1]): below the threshold
pKd (CASK, O14936; [1]): below the threshold
pKd (DLG3_3, Q92796; [1]): below the threshold
pKd (FRMPD3, Q5JV73; [1]): below the threshold
pKd (GOPC, Q9HD26; [1]): below the threshold
pKd (GORASP2, Q9H8Y8; [1]): below the threshold
pKd (GRID2IP_1, A4D2P6; [1]): below the threshold
pKd (GRID2IP_2, A4D2P6; [1]): 3.48
pKd (HTRA2, O43464; [1]): below the threshold
pKd (IL16_4, Q14005; [1]): below the threshold
pKd (Inadl_3, Q8NI35; [1]): 3.5
pKd (Inadl_9, Q8NI35; [1]): 3.87
pKd (LIMK2, P53671; [1]): below the threshold
pKd (LNX1_2, Q8TBB1; [1]): below the threshold
pKd (LNX1_3, Q8TBB1; [1]): below the threshold
pKd (LNX2_2, Q8N448; [1]): 4.27
pKd (MAGI2_3, Q86UL8; [1]): below the threshold
pKd (MAGI2_4, Q86UL8; [1]): 3.64
pKd (MAST1, Q9Y2H9; [1]): 4.38
pKd (MAST2, Q6P0Q8; [1]): 5.17
pKd (NHERF4_2, Q86UT5; [1]): below the threshold
pKd (PDZD7_3, Q9H5P4; [1]): 4.63
pKd (PDZRN3_1, Q9UPQ7; [1]): below the threshold
pKd (PDZRN4_1, Q6ZMN7; [1]): below the threshold
pKd (RADIL, Q96JH8; [1]): 3.61
pKd (RHPN1, Q8TCX5; [1]): 3.95
pKd (SNTG2, Q9NY99; [1]): below the threshold
pKd (TJP1_2, Q07157; [1]): below the threshold
pKd (TJP2_1, Q9UDY2; [1]): below the threshold
Binder: KDECVIATEV [DLL1, O00548]

pKd (APBA1_1, Q02410; [2]): below the threshold
pKd (CASK, O14936; [2]): below the threshold
pKd (DLG3_3, Q92796; [2]): below the threshold
pKd (FRMPD3, Q5JV73; [2]): below the threshold
pKd (GOPC, Q9HD26; [2]): 4.14
pKd (GORASP2, Q9H8Y8; [2]): below the threshold
pKd (GRID2IP_1, A4D2P6; [2]): below the threshold
pKd (GRID2IP_2, A4D2P6; [2]): 3.8
pKd (HTRA2, O43464; [2]): below the threshold
pKd (IL16_4, Q14005; [2]): below the threshold
pKd (Inadl_3, Q8NI35; [2]): 4.36
pKd (Inadl_9, Q8NI35; [2]): 3.98
pKd (LIMK2, P53671; [2]): below the threshold
pKd (LNX1_2, Q8TBB1; [2]): 3.73
pKd (LNX1_3, Q8TBB1; [2]): below the threshold
pKd (LNX2_2, Q8N448; [2]): 4.66
pKd (MAGI2_3, Q86UL8; [2]): 3.89
pKd (MAGI2_4, Q86UL8; [2]): 4.42
pKd (MAST1, Q9Y2H9; [2]): 4.38
pKd (MAST2, Q6P0Q8; [2]): 4.65
pKd (NHERF4_2, Q86UT5; [2]): below the threshold
pKd (PDZD7_3, Q9H5P4; [2]): 5.61
pKd (PDZRN3_1, Q9UPQ7; [2]): 4.3
pKd (PDZRN4_1, Q6ZMN7; [2]): 4.11
pKd (RADIL, Q96JH8; [2]): 4.08
pKd (RHPN1, Q8TCX5; [2]): 4.61
pKd (SNTG2, Q9NY99; [2]): 4.95
pKd (TJP1_2, Q07157; [2]): below the threshold
pKd (TJP2_1, Q9UDY2; [2]): below the threshold
Binder: NPDALPETLV [ARHGAP6, O43182]

pKd (APBA1_1, Q02410; [1]): below the threshold
pKd (CASK, O14936; [1]): below the threshold
pKd (DLG3_3, Q92796; [1]): below the threshold
pKd (FRMPD3, Q5JV73; [1]): below the threshold
pKd (GOPC, Q9HD26; [1]): below the threshold
pKd (GORASP2, Q9H8Y8; [1]): 4.51
pKd (GRID2IP_1, A4D2P6; [1]): below the threshold
pKd (GRID2IP_2, A4D2P6; [1]): below the threshold
pKd (HTRA2, O43464; [1]): 3.68
pKd (IL16_4, Q14005; [1]): below the threshold
pKd (Inadl_3, Q8NI35; [1]): 3.86
pKd (Inadl_9, Q8NI35; [1]): 3.74
pKd (LIMK2, P53671; [1]): below the threshold
pKd (LNX1_2, Q8TBB1; [1]): below the threshold
pKd (LNX1_3, Q8TBB1; [1]): below the threshold
pKd (LNX2_2, Q8N448; [1]): 4.44
pKd (MAGI2_3, Q86UL8; [1]): below the threshold
pKd (MAGI2_4, Q86UL8; [1]): 4.12
pKd (MAST1, Q9Y2H9; [1]): below the threshold
pKd (MAST2, Q6P0Q8; [1]): 3.86
pKd (NHERF4_2, Q86UT5; [1]): below the threshold
pKd (PDZD7_3, Q9H5P4; [1]): 3.53
pKd (PDZRN3_1, Q9UPQ7; [1]): below the threshold
pKd (PDZRN4_1, Q6ZMN7; [1]): 3.63
pKd (RADIL, Q96JH8; [1]): 4.46
pKd (RHPN1, Q8TCX5; [1]): 3.8
pKd (SNTG2, Q9NY99; [1]): below the threshold
pKd (TJP1_2, Q07157; [1]): below the threshold
pKd (TJP2_1, Q9UDY2; [1]): 4.77
Binder: AKPQPVDSWV [ARVCF, O00192]

Reference: article PMC9482650, “Quantitative fragmentomics allow affinity mapping of interactomes” (Nature Communications, 2022)
